According to paper PMC3547700:

Target: V5-UL56 (HCMV strain AD169), plasmid-expressed (human cytomegalovirus strain AD169)

FLAG-UL51 (HCMV strain AD169), plasmid-expressed (natural protein)
percentage of transfected HEK-293 T cells with nuclear staining of UL56 by confocal microscopy, in the presence of UL51 (UL56 alone exclusively cytoplasmic) (% of cells with nuclear staining): 62

MYC-UL89 (HCMV strain AD169), plasmid-expressed (natural protein)
percentage of transfected HEK-293 T cells with nuclear staining of UL56 by confocal microscopy, in the presence of UL89 (UL56 alone exclusively cytoplasmic) (% of cells with nuclear staining): 37
percentage of transfected HEK-293 T cells with nuclear staining of UL89 by confocal microscopy, in the presence of UL56 (UL89 alone exclusively cytoplasmic) (% of cells with nuclear staining): 26
